We go through four substances from US20240218041A1, “MOLECULAR DESIGN OF GLUCOSE SENSORS IN GLUCOSE-RESPONSIVE INSULIN ANALOGUES” (THE TRUSTEES OF INDIANA UNIVERSITY, priority 2021, published 2024).

The target of one assay is insulin receptor (Homo sapiens, UniProt P06213). Kind of assay: In-cell pIR immunoblotting (pIR/IR phosphorylation, 96-well plate assay) in HepG2 cells. Particulars: for glucose-dependent activity in HepG2 cells in culture: as described in Chen, Y.-S., et al. (2021); for monosaccharide dependence of biological activity (pIR/IR phosphorylation): ±50 mM glucose or ±50 mM fructose. The assay is classed as cell-based. More on the design: endogenous in cells; host or cells: HepG2 (human hepatocellular carcinoma; ATCC). (In general: In western blotting, separated proteins are transferred to a membrane and probed.)

For assay [1] the following is noted: in vivo; cited from earlier work.
The subject of assay [2] is IR autophosphorylation and downstream p-AKT/AKT, p-FOXO1/FOXO1, p-GSK-3/GSK-3. Briefly: Western blot signaling assays in HepG2 cells. The assay is classed as cell-based, human.
Experimental: Signal propagation was probed via a cytoplasmic kinase cascade and changes in metabolic gene expression in HepG2 cells. […] An overview of IR autophosphorylation (probed by anti-pTyr IR antibodies) and downstream phosphorylation of Ser-Thr protein kinase AKT (protein kinase B; ratio p-AKT/AKT), forkhead transcription factor 1 (p-FOXO1/FOXO1), and glycogen synthase kinase-3 (p-GSK-3/GSK-3) at a single hormone dose (50 nM) was provided by Western blot (WB).
Signaling assays in a mammalian cell line. HepG2 cell line (ATCC) were cultured in DMEM with 10% FBS, 1% penicillin/streptomycin per vendor's instruction. After 70-75% cell confluence, cells were serum-starved for 24 h and then exposed to medium containing an insulin analogue (each at a protein concentration of 50 nM). After lysis in RIPA buffer (containing protease- and phosphatase-inhibitor cocktails; Roche), the total protein concentrations in the lysate was determined by BCA assay (Thermo). […] Briefly, for p-IR/IR blotting, samples were probed by insulin receptor β (4B8) antibody (CST antibodies unless otherwise stated) or an equal mixture of anti-phospho-insulin receptor β (Tyr1150/1151); phospho-insulin receptor (Tyr1158) antibody (Thermo); phospho-insulin receptor (Tyr1334) antibody (Thermo); phospho-insulin receptor β (Tyr1345) monoclonal antiserum; and anti-phospho-insulin receptor (phospho-Tyr972) antibody (Abcam). […]
For assay [3], the system named is PEPCK, ChREBP and SREBP gene expression in HepG2 cells. Briefly: Real-time qPCR assays of metabolic gene regulation in HepG2 cells. The assay is classed as cell-based, human. (Real-time PCR tracks product formation cycle by cycle.)
Experimental: Cell culture. Human hepatocellular carcinoma cell line HepG2 was cultured in Dulbecco's Modified Eagle Medium (DMEM), supplemented with 10% fetal bovine serum (FBS), 1% penicillin/streptomycin as recommended by the American Type Culture Collection. A protocol employing 24-h serum starvation wherein FBS was applied at 70-75% confluence. After starvation, cells were treated in parallel with a set of insulin analogues in serum-free medium.
Real-time qPCR assays. Following serum starvation, HepG2 cells were treated with medium containing an insulin analogue (50 nM) for 8 h. In studies related to possible glucose responsiveness and lipid metabolism, the cells were treated with analogues for 3 or 4 h in media containing either low or normal glucose concentrations. Readouts were provided by downregulation of PEPCK and G6P and upregulation of ChREBP and SREBP. mRNA (messenger ribonucleic acid) abundances were measured in triplicate by quantitative polymerase chain reaction (qPCR). Samples were prepared as described by the vendor (One-Step rt-PCR reagent kits; Bio-Rad).

Experimental for insulin receptor: After starvation, cells were treated in parallel with a set of insulin analogues in serum-free medium.
In-cell pIR immunoblotting. This cell-based assay probed insulin-dependent IR activation via fluorescent readouts. HepG2 cells were seeded (˜8000 cells/well) into a 96-well black plate with clear bottom and cultured (Fisher). After serum starvation in 100 μl plain Hanks' Balanced Salt Solution (HBSS) for 2 h at 37° C., serial analogue dilutions (100 μl) were applied to each well; cells were then incubated for 20 min at 37° C. After removing medium, 150 μl of 3.7% formaldehyde (Fisher) was added to each well, and plates incubated for 20 min at 37° C. 200 μl of 0.1% Triton-X-100 (Sigma) was then added to permeabilize the cells, followed by their fixation by 100-μl Odyssey Blocking Buffer (LI-COR). A blocking procedure was applied for 1 h at room temperature on an orbital shaker. Fixed cells were then exposed to the primary antibody (10 μL anti-pTyr 4G10 (Sigma) into 20 ml Blocking Buffer) overnight at 4° C. The secondary antibody (anti-mouse-IgG-800-CW antibody (Sigma) in 25 ml Blocking Buffer) was added after a wash. pTyr was detected via 800 nm emission. DRAQ5 (Fisher) was also applied to enable measurement of cell number via 700 nm emission. The fluorescence signals were detected on a LI-COR Infrared Imaging system (Odyssey) under settings as follows: offset 4 mm with setting “Intensity-Auto.”

On to “GlyA−1, Cys(GBE1-C)A0, SecA6, SecA11, Lys(DHBA)B28-lispro [GRI-4]”, for which, in the assay with insulin receptor, the “glucose-dependent activity in HepG2 cells in culture” value is given as “glucose-dependent activity”. The “monosaccharide dependence of biological activity (pIR/IR phosphorylation)” value with insulin receptor (HepG2 cells) was “monosaccharide-dependent biological activity”.
Consider insulin detemir, for which the “per molecule activity relative to human insulin” value in assay [1] was “fourfold reduced”.
On to “FRI: insulin lispro with meta-fluoro-PBA on the α-amino group of GlyA1, 3,4-dihydroxybenzoic acid on LysB28, and HisA8”, for which the signaling activity result in assay [2] (in the absence of fructose, 50 nM) is recorded as “low”. Moreover, in assay [2] (single hormone dose 50 nM, HepG2 cells), the “fructose dependence of signaling (IR autophosphorylation, p-AKT/AKT, p-FOXO1/FOXO1, p-GSK-3/GSK-3)” value is recorded as “fructose-dependent signaling”. Also, the “regulation of PEPCK gene expression” value in assay [3] (activated by fructose, hypoglycemic conditions, HepG2) is listed as “regulated downstream expression”. The “regulation of ChREBP and SREBP genes” value in assay [3] (activated by fructose, normoglycemic conditions, HepG2) is “regulated the genes”. In assay [3] (addition of glucose instead of fructose), the “effect of glucose on metabolic gene regulation” value is “no effects”. Further, the “effect of glucose on IR autophosphorylation activity” value with insulin receptor (addition of 50 mM glucose) is reported as “did not influence its activity”. The “IR autophosphorylation activity relative to KP” value with insulin receptor (in 50 mM fructose) is “almost as active as KP”. The “baseline IR autophosphorylation activity” value with insulin receptor (in the absence of fructose) is on record as “low”. The IR autophosphorylation signal entry in the assay with insulin receptor (on addition of 50 mM fructose) is recorded as “robust signal”.
“GlyA0, D-Cys(GBE1-C)A1, SecA6, SecA11, Lys(DHBA)B28-lispro [GRI-3]”: the glucose-dependent gene regulation entry in assay [3] (PEPCK, ChREBP and SREBP, HepG2 cells in culture) was “glucose-dependent gene regulation”. Further, the “glucose-dependent activity in HepG2 cells in culture” value with insulin receptor is given as “glucose-dependent activity”. In addition, the “monosaccharide dependence of biological activity (pIR/IR phosphorylation)” value in the assay with insulin receptor (HepG2 cells) was “monosaccharide-dependent biological activity”. Moreover, the “glucose dependence of pIR/IR phosphorylation” value with insulin receptor (±50 mM glucose, HepG2 cells) was “glucose-dependent IR phosphorylation”.
